Experimental data published in patent US20190233495A1 (Sanofi, published 2019).
Read-outs that look alike come from different tables or passages of the source. Each block holds one binder with its values, some of them ahead of it. Positions of bridges follow the written chain, without caps; N, C: chain ends. Non-standard residues stand in square brackets, D forms with d. Chains are numbered I, II in the order given. No end group written: not given here. Nle = CCCC[C@H](N)C(=O)O; Aib = CC(C)(N)C(=O)O

Tests used:
Assay in all cases: cell-based or functional assay
RXFP1 receptor [1] = molecular target: T1, RXFP1 receptor (UniProt Q9HBX9 1-757, limits assumed)
T1 sequence (looked up): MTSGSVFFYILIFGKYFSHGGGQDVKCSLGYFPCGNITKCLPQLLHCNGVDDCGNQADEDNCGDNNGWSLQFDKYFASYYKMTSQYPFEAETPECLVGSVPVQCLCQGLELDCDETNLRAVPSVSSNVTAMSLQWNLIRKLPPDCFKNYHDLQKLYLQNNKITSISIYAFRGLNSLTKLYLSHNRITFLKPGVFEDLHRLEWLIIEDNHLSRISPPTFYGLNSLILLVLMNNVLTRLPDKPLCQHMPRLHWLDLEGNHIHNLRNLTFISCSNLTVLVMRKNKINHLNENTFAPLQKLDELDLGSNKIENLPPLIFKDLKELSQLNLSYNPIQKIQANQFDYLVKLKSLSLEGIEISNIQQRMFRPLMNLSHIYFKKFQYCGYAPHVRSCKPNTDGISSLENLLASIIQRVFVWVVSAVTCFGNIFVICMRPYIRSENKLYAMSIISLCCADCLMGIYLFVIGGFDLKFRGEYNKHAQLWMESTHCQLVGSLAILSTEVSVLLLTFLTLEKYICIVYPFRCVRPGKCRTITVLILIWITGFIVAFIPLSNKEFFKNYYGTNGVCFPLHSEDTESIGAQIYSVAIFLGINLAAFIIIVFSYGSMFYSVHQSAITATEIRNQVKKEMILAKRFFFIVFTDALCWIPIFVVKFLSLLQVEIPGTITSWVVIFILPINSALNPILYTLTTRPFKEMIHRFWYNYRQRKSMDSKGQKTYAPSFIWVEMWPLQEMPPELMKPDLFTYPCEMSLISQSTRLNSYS

RXFP1 receptor [2] = molecular target: T1, RXFP1 receptor; remark: listed apart in the source
RXFP1 receptor [3] = molecular target: T1, RXFP1 receptor; remark: listed apart in the source

- cAMP assay in OVCAR 5 cells EC50 (RXFP1 receptor [1]): 22.2 nM
- cAMP assay in OVCAR 5 cells Emax (RXFP1 receptor [1]): 95%
B1: SEQ ID NO: 49 (peptide)
peptide: Ac-LEGREKVRRQI[Aib][Aib]EG[Nle]STWS[Aib]RKK-NH2
SMILES: CCCC[C@H](NC(=O)CNC(=O)[C@H](CCC(=O)O)NC(=O)C(C)(C)NC(=O)C(C)(C)NC(=O)[C@@H](NC(=O)[C@H](CCC(N)=O)NC(=O)[C@H](CCCNC(=N)N)NC(=O)[C@H](CCCNC(=N)N)NC(=O)[C@@H](NC(=O)[C@H](CCCCN)NC(=O)[C@H](CCC(=O)O)NC(=O)[C@H](CCCNC(=N)N)NC(=O)CNC(=O)[C@H](CCC(=O)O)NC(=O)[C@H](CC(C)C)NC(C)=O)C(C)C)[C@@H](C)CC)C(=O)N[C@@H](CO)C(=O)N[C@H](C(=O)N[C@@H](Cc1c[nH]c2ccccc12)C(=O)N[C@@H](CO)C(=O)NC(C)(C)C(=O)N[C@@H](CCCNC(=N)N)C(=O)N[C@@H](CCCCN)C(=O)N[C@@H](CCCCN)C(N)=O)[C@@H](C)O

- cAMP assay in OVCAR 5 cells EC50 (RXFP1 receptor [2]): 0.1 to 0.3 nM
B2: Human Relaxin-2 (H2 Relaxin) (ligand)
chain 1: H-QLYSALANKCCHVGCTKRSLARFC-OH
chain 2: H-DSWMEEVIKLCGRELVRAQIAICGMSTWS
modifications: disulfide I:10-I:15, I:11-II:11, I:24-II:23

- cAMP assay in OVCAR 5 cells EC50 (RXFP1 receptor [1]): 19.5 nM
- cAMP assay in OVCAR 5 cells Emax (RXFP1 receptor [1]): 91%
B3: SEQ ID NO: 48 (peptide)
peptide: Ac-ELEGREKVRAAI[Aib][Aib]EG[Nle]STWS[Aib]RKK-NH2
SMILES: CCCC[C@H](NC(=O)CNC(=O)[C@H](CCC(=O)O)NC(=O)C(C)(C)NC(=O)C(C)(C)NC(=O)[C@@H](NC(=O)[C@H](C)NC(=O)[C@H](C)NC(=O)[C@H](CCCNC(=N)N)NC(=O)[C@@H](NC(=O)[C@H](CCCCN)NC(=O)[C@H](CCC(=O)O)NC(=O)[C@H](CCCNC(=N)N)NC(=O)CNC(=O)[C@H](CCC(=O)O)NC(=O)[C@H](CC(C)C)NC(=O)[C@H](CCC(=O)O)NC(C)=O)C(C)C)[C@@H](C)CC)C(=O)N[C@@H](CO)C(=O)N[C@H](C(=O)N[C@@H](Cc1c[nH]c2ccccc12)C(=O)N[C@@H](CO)C(=O)NC(C)(C)C(=O)N[C@@H](CCCNC(=N)N)C(=O)N[C@@H](CCCCN)C(=O)N[C@@H](CCCCN)C(N)=O)[C@@H](C)O

- cAMP assay in OVCAR 5 cells EC50 (RXFP1 receptor [3]): 929 nM
- cAMP assay in OVCAR 5 cells Emax (RXFP1 receptor [3]): 70%
Binder: Ac-VIKLSGRELVRAQIAISGMSTWSKRSL-NH2 [AcB7-33 C11.23S]

- cAMP assay in OVCAR 5 cells EC50 (RXFP1 receptor [3]): 206 nM
- cAMP assay in OVCAR 5 cells Emax (RXFP1 receptor [3]): 84%
Binder: Ac-VIKLSGRELVRAQIAISGMSTWSKKKK-NH2 [KKKK(AcB7-29 C11.23S)]

- cAMP assay in OVCAR 5 cells EC50 (RXFP1 receptor [1]): 117 nM
- cAMP assay in OVCAR 5 cells Emax (RXFP1 receptor [1]): 94%
B4: SEQ ID NO: 47 (peptide)
peptide: Ac-LEGREKVRAK(Ac)I[Aib][Aib]EG[Nle]STWS[Aib]RK-NH2
SMILES: CCCC[C@H](NC(=O)CNC(=O)[C@H](CCC(=O)O)NC(=O)C(C)(C)NC(=O)C(C)(C)NC(=O)[C@@H](NC(=O)[C@H](CCCCNC(C)=O)NC(=O)[C@H](C)NC(=O)[C@H](CCCNC(=N)N)NC(=O)[C@@H](NC(=O)[C@H](CCCCN)NC(=O)[C@H](CCC(=O)O)NC(=O)[C@H](CCCNC(=N)N)NC(=O)CNC(=O)[C@H](CCC(=O)O)NC(=O)[C@H](CC(C)C)NC(C)=O)C(C)C)[C@@H](C)CC)C(=O)N[C@@H](CO)C(=O)N[C@H](C(=O)N[C@@H](Cc1c[nH]c2ccccc12)C(=O)N[C@@H](CO)C(=O)NC(C)(C)C(=O)N[C@@H](CCCNC(=N)N)C(=O)N[C@@H](CCCCN)C(N)=O)[C@@H](C)O

- cAMP assay in OVCAR 5 cells EC50 (RXFP1 receptor [3]): 1640 nM
- cAMP assay in OVCAR 5 cells Emax (RXFP1 receptor [3]): 90%
Binder: H-VIKLSGRELVRAQIAISGMSTWSKRSL-NH2 [B7-33 C11.23S]
